Experimental data reported in PMC6826516.

B1: LgBiT-TEAD1-Myc (TEAD1 aa 194-411), wild type [not stated] / SmBiT-TAZ-Flag (TAZ aa 13-119), wild type [not stated] (parent)
chain 1: PGQQVIHVTQDLDTDLEALFNSVMNPKPSSWRKKILPESFFKEPDSGSHSRQSSTDSSGGHPGPRLAGGAQHVRSHSSPASLQLGTGAGAAGSPAQQHAHLRQQSYD
chain 2: RSIGTTKLRLVEFSAFLEQQRDPDSYNKHLFVHIGHANHSYSDPLLESVDIRQIYDKFPEKKGGLKELFGKGPQNAFFLVKFWADLNCNIQDDAGAFYGVTSQYESSENMTVTCSTKVCSFGKQVVEKVETEYARFENGRFVYRINRSPMCEYMINFIHKLKHLPEKYMMNSVLENFTILLVVTNRDTQETLLCMACVFEVSNSEHGAQHHIYRLVKD

Variants of: B1
Assay: NanoBiT assay (split-luciferase biosensor) in lysates of transfected HEK293T cells
Settings: with SmBiT-TAZ-Flag (TAZ aa 13-119), 48 h after transfection, equal amounts of each biosensor plasmid, read off a plot

Row | response (fold over LgBiT-TEAD1 alone) | Variant
1 | 37 | chain 2 E47A V49A I54A
